Source: patent publication US20220054419A1

The substances below were run against hemagglutinin (HA) of A/California/4/09 (H1N1) on pseudotyped lentivirus (Influenza virus A/California/04/2009 (H1N1)) (UniProt P26140) (assay: cell-based or functional assay).
monoclonal antibody 441D6 showed a Neutralization IC50, lentivirus pseudotype neutralization assay of 0.16 mg/L. “monoclonal antibody CH65 (anti-receptor binding site of HA)” showed a Neutralization IC50, lentivirus pseudotype neutralization assay of 6.25 mg/L. With “monoclonal antibody FI6v3 (anti-HA stem region)” the Neutralization IC50, lentivirus pseudotype neutralization assay was 0.13 mg/L.
